Measured values from patent publication US20130344582.

Test system: collagen IV (BD Biosciences)

Substance: activated MMP-9 (Chemicon)
- alignment of liquid crystal on the surface (zymography; enzymatic digestion of the protein substrate): after 30 minutes incubation with 1 pg MMP-9, the collagen IV has been digested and the liquid crystals align on the exposed SAM
